Results on 2 proteins are retold here after patent US20030049729.

Series [1] addresses plasminogen.
Series [2] addresses T1, human fibrinogen fragments, P02671.
T1 chain 1: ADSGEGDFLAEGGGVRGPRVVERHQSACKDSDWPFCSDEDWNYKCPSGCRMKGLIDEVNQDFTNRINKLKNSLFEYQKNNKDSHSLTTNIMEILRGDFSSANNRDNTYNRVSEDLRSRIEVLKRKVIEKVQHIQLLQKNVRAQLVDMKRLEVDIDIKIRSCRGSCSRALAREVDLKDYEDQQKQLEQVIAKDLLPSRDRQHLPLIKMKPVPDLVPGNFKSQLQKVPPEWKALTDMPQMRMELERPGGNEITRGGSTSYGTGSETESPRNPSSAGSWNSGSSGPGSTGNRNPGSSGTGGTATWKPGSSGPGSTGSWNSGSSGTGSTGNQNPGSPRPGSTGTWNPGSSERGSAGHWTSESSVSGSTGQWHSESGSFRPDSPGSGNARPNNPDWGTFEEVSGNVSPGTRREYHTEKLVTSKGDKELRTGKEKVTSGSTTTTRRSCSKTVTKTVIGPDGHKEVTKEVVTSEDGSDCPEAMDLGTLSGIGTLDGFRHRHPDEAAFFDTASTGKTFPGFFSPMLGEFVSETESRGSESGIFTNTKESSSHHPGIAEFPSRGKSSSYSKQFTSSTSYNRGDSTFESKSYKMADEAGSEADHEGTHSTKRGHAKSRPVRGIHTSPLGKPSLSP
T1 chain 2: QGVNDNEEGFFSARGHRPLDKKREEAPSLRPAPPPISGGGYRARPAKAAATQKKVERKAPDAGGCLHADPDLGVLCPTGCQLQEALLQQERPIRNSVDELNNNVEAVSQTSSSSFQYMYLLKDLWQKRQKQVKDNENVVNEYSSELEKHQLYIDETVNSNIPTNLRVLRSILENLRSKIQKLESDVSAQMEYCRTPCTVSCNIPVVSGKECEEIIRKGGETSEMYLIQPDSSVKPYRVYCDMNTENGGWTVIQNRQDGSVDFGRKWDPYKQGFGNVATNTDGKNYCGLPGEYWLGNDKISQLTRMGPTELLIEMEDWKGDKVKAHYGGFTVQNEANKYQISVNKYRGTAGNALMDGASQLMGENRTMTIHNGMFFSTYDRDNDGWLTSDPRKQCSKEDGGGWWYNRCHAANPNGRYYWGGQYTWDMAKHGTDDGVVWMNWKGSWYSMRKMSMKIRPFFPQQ
T1 chain 3: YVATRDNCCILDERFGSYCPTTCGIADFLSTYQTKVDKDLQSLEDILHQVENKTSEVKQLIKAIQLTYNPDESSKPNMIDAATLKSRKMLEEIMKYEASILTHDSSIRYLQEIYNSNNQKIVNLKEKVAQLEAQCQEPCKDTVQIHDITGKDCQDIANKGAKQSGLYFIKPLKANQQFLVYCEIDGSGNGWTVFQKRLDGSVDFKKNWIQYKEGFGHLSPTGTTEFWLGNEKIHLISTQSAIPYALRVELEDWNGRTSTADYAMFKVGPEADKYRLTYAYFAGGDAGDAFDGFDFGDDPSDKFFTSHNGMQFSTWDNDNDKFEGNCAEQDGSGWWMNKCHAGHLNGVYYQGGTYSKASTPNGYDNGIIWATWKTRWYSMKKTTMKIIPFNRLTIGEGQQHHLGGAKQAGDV

Sequence of plasminogen (P00747 20-810): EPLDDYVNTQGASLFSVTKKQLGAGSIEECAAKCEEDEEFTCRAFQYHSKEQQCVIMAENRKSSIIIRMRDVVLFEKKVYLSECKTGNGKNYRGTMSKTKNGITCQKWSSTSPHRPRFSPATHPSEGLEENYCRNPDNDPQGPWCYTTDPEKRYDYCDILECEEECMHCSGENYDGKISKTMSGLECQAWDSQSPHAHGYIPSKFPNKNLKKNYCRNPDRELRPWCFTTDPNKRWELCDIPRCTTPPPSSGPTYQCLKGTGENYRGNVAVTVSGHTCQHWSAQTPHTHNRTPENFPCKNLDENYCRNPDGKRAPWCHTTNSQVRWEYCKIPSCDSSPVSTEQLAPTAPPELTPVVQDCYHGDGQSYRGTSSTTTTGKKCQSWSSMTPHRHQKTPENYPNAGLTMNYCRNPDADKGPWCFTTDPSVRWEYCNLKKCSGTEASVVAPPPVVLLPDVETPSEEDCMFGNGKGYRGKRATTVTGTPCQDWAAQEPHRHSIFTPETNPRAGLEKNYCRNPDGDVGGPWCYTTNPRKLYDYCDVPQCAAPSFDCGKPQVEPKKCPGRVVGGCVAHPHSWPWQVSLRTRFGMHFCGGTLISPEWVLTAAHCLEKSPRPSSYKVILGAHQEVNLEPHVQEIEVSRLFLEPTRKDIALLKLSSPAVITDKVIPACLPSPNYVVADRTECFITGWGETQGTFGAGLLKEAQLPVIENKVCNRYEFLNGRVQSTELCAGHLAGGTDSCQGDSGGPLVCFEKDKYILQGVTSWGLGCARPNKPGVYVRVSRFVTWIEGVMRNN

B1: recombinant-K2S (r-K2S), kringle 2 plus serine protease portion of tPA, expressed in non-gpIII fusion form in XM[K2S] (protein)
chain: SEGNSDCYFGNGSAYRGTHSLTESGASCLPWNSMILIGKVYTAQNPSAQALGLGKHNYCRNPDGDAKPWCHVLKNRRLTWEYCDVPSCSTCGLRQYSQPQFRIKGGLFADIASHPWQAAIFAKHRRSPGERFLCGGILISSCWILSAAHCFQERFPPHHLTVILGRTYRVVPGEEEQKFEVEKYIVHKEFDDDTYDNDIALLQLKSDSSRCAQESSVVRTVCLPPADLQLPDWTECELSGYGKHEALSPFYSERLKEAHVRLYPSSRCTSQHLLNRTVTDNMLCAGDTRSGGPQANLHDACQGDSGGPLVCLNDGRMTLVGIISWGLGCGQKDVPGVYTKVTNYLDWIRDNMRP
In the case of B1, in series [1], the “copolymerized plasminogen polyacrylamide gel electrophoresis” value was “Transparent areas of serine protease digested plasminogen were observed only in the ammonium sulfate precipitated culture supernatants of XM[K2S] at 34 and 37 kDa postions”; the “fibrinogen-dependent enzymatic activity (culture supernatant r-K2S)” value came out at 7 IU/ml; the “fibrinogen-dependent enzymatic activity (periplasmic r-K2S)” value was “notably low enzymatic activity, which was below the sensitivity of the test (0.25 IU/ml)”. Besides, in series [2], the “enzymatic activity without fibrinogen” value is on record as “Without fibrinogen no enzymatic activity of the r-K2S purified from culture supernatant was observed”.

B2: standard melanoma tPA 86/670 (protein)
chain: SYQVICRDEKTQMIYQQHQSWLRPVLRSNRVEYCWCNSGRAQCHSVPVKSCSEPRCFNGGTCQQALYFSDFVCQCPEGFAGKCCEIDTRATCYEDQGISYRGTWSTAESGAECTNWNSSALAQKPYSGRRPDAIRLGLGNHNYCRNPDRDSKPWCYVFKAGKYSSEFCSTPACSEGNSDCYFGNGSAYRGTHSLTESGASCLPWNSMILIGKVYTAQNPSAQALGLGKHNYCRNPDGDAKPWCHVLKNRRLTWEYCDVPSCSTCGLRQYSQPQFRIKGGLFADIASHPWQAAIFAKHRRSPGERFLCGGILISSCWILSAAHCFQERFPPHHLTVILGRTYRVVPGEEEQKFEVEKYIVHKEFDDDTYDNDIALLQLKSDSSRCAQESSVVRTVCLPPADLQLPDWTECELSGYGKHEALSPFYSERLKEAHVRLYPSSRCTSQHLLNRTVTDNMLCAGDTRSGGPQANLHDACQGDSGGPLVCLNDGRMTLVGIISWGLGCGQKDVPGVYTKVTNYLDWIRDNMRP
Regarding B2, the “copolymerized plasminogen polyacrylamide gel electrophoresis” value in series [1] is “The positive control lane of standard melanoma tPA also demonstrated enzymatic activity at 66 and 72 kDa positions”. Moreover, the “enzymatic activity without fibrinogen” value in series [2] was “standard melanoma tPA showed some activity”.
